Here are results for two molecules from article PMC7289600, “Signaling diversity enabled by Rap1-regulated plasma membrane ERK with distinct temporal dynamics” (eLife, 2020).

Where a chain is given by its changes, count along the chain named.

The target of the experiment is T1, Rap1-binding domain (RBD) from RalGDS fused to the acceptor fluorophore Ypet (second chain of Rap1A/B-FLARE) (UniProt Q12967 798-885).
T1 construct: also called RalGDS RBD; source: PC12 cells, transfected (Lipofectamine 2000), in living cells
T1 sequence (looked up): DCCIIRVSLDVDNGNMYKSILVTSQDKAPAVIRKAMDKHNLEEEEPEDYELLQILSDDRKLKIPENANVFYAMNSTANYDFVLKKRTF
The experiment in a line: FRET or BRET; dual-chain Rap1A/B-FLARE biosensors expressed in living PC12 cells; EGF added at time 0; yellow over cyan (Y/C) emission ratio imaging in HBSS at 37°C; increase abrogated by co-expression of Rap1GAP or by GGTI-298. Particulars: partners not purified.

B1: Rap1A fused to the donor fluorophore mCerulean3 (Rap1A chain of the dual-chain biosensor Rap1A-FLARE) (natural protein, UniProt P62834 1-184, looked up)
chain: MREYKLVVLGSGGVGKSALTVQFVQGIFVEKYDPTIEDSYRKQVEVDCQQCMLEILDTAGTEQFTAMRDLYMKNGQGFALVYSITAQSTFNDLQDLREQILRVKDTEDVPMILVGNKCDLEDERVVGKEQGQNLARQWCNCAFLESSAKSKINVNEIFYDLVRQINRKTPVEKKKPKKKSCLLL
notes: Rap1A, GTPase of the Ras family; plasmid provided by Klaus Hahn; source: PC12 cells, transfected (Lipofectamine 2000), in living cells; not shown: mCerulean3, N-terminal, kept
Take B1: the “increase in Y/C emission ratio (FRET) after EGF” value amounted to 25.4%.

B2: Rap1B fused to the donor fluorophore mCerulean3 (Rap1B chain of the dual-chain biosensor Rap1B-FLARE) (natural protein, UniProt P61224 1-184, looked up)
chain: B1 chain with C48A, E107D, C139N, E172P, K173G, K175A, P176R, K179S, L182Q
notes: Rap1B, GTPase of the Ras family; plasmid provided by Klaus Hahn; source: PC12 cells, transfected (Lipofectamine 2000), in living cells; not shown: mCerulean3, N-terminal, kept
As for B2, the “increase in Y/C emission ratio (FRET) after EGF” value was 26%.
